Paper doi:10.1101/2023.10.12.561995 (bioRxiv, 2023)

Target: S-protein of WT SARS-CoV-2 (S-trimer) used in BLI (SARS-CoV-2 wildtype, UniProt P0DTC2, stabilised)
Assay: BLI

B1: R1-26 (mAb, human IgG1) (antibody, V domains shown)
VH: EVQLVESGGGLVQPGGSLRLSCAASGFTFSSYWMSWVRQAPGKGLEWVANIKQDGSEKYYVDSVKGRFTISRDNAKNSLYLQMNSLRAEDTAVYYCARGQLGPWVGVDYWGQGTLVTVSS
VL: NFMLTQPHSVSESPGKTVTISCTGSSGSIASNYVQWYQQRPGSAPTTVIYEDNQRPSGVPDRFSGSIDSSSNSASLTISGLKTEDEADYYCQSYDSSNWVFGGGTQLTVL
Q: Does B1 bind?
A: binds
